The values below come from patent publication US20140120082A1.

Test [1] concerns the target 8.3 TcR. In words: tetramer staining of 8.3 TcR-transgenic NOD CD8+ T cells, flow cytometry. Background: Flow cytometry measures light scatter and fluorescence of single cells or particles in a stream.
Test [2] addresses human NKG2D (human) (UniProt P26718). Put plainly: cell-based or functional assay.
Test [3] shares this target. Put plainly: flow cytometry on NKL cells stained on ice with biotinylated mAb, APC-streptavidin before culture (0 h).
Test [4] shares this target. Put plainly: flow cytometry on NKL cells stained on ice with biotinylated mAb, APC-streptavidin after 16 h of culture at 37° C.

Sequence of UniProt P26718 (P26718 whole entry T72A): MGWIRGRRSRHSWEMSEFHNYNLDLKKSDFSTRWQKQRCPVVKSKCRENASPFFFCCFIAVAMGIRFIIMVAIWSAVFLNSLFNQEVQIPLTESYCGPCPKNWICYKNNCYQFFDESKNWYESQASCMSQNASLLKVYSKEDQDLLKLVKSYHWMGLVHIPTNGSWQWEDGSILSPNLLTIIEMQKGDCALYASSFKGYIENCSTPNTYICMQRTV

In turn, “NRP-V7/H-2K^d tetramer (from UniProt P01902 22-305) (peptide-MHC)” yielded a percent of donor CD8+ T cells tetramer positive in test [1] of more than 90%.

On to “mouse anti-human NKG2D mAb (R&D Systems clone 149810) (antibody)”, for which, in test [2], the decrease in expression of NKG2D on the cell surface is 67%. Further, the mean fluorescence intensity (arbitrary units) turned out to be 186 in test [3] and 61 in test [4].
